Here are results for 1 molecule from patent EP2123670B1.

Holding throughout (conditions): remark: other sources report otherwise
Assay [1] concerns the target T1, factor XIIa, P00748.
T1 chain: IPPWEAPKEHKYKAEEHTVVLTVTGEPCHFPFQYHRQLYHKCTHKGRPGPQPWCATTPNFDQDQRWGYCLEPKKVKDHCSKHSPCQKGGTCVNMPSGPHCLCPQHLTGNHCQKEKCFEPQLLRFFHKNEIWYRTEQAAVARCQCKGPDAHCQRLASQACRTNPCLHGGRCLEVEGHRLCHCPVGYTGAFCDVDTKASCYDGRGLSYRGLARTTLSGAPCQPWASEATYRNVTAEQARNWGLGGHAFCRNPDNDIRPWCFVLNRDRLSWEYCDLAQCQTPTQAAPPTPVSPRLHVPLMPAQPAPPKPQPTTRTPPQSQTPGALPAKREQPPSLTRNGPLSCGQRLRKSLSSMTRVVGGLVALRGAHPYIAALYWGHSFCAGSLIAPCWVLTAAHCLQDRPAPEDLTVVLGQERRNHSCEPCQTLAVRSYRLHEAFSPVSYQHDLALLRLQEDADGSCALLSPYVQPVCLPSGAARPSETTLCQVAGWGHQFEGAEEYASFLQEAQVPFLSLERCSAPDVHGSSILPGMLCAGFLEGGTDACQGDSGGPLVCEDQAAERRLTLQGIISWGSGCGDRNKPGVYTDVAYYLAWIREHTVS
The assay can be described thus: SPR, Ir-CPI immobilised; two-state model, forward rate of the conformation change. On the technique in general: SPR reads the build-up and loss of mass on a sensor chip optically.

The target in assay [2] is T1, factor XIIa, P00748. Nature of the assay: SPR, Ir-CPI immobilised; two-state model, global equilibrium constant K = ka1ka2/kd1kd2.
The target of assay [3] is T1, factor XIIa, P00748. Nature of the assay: SPR (BIAcore X), Ir-CPI immobilised at about 200 RU, factor injected at 5-300 nM; two-state model, kd1 (first step).
The target in assay [4] is T1, factor XIIa, P00748. Nature of the assay: SPR, Ir-CPI immobilised; two-state model, backward rate of the conformation change.
Assay [5] concerns the target T1, factor XIIa, P00748. Nature of the assay: SPR (BIAcore X), Ir-CPI immobilised at about 200 RU, factor injected at 5-300 nM; two-state model, ka1 (first step).

B1: Ir-CPI, Q9GP15 20-86 (protein)
chain: ANHKGRGRPAKCKLPPDDGPCRARIPSYYFDRKTKTCKEFMYGGCEGNENNFENITTCQEECRAKKV
Broadly, the koff is the first-order rate constant of dissociation. Higher therefore signals a short-lived complex. By kon is commonly meant the second-order rate constant of association. A higher kon goes with faster complex formation. Consider B1, for which the ka2 in assay [1] worked out at 0.655 s⁻¹. The molecule further displayed a Ka in assay [2] of 1.68e+08 M⁻¹. The molecule further gave a koff in assay [3] of 0.0946 s⁻¹. In assay [4], the kd2 stood at 0.105 s⁻¹. For the same molecule, the kon in assay [5] worked out at 219000 M⁻¹ s⁻¹.
